Measured values: US20160200782A1 (MOERAE MATRIX, published 2016)

Columns and labels:
Assay in all cases: cell-based or functional assay
Fms(h) = target: T1, Fms(h) (human, UniProt P07333 538-972, limits assumed)
T1 sequence (looked up): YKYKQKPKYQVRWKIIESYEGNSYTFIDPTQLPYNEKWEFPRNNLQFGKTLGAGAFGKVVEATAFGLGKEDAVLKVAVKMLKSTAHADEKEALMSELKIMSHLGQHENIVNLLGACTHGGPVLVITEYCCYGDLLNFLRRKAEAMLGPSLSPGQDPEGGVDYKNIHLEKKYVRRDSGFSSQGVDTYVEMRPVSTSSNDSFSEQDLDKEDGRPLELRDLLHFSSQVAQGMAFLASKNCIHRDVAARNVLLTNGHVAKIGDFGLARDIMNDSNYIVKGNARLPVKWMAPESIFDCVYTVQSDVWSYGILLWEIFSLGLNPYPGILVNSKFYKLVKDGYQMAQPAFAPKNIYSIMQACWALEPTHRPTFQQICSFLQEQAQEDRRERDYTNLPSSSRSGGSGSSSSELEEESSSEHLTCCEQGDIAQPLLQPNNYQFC

HIPK3(h) = HIPK3(h) (human, UniProt Q9H422 161-562, limits assumed)
IKKα(h) = target: T2, IKKα(h) (human, UniProt O15111 1-745, limits assumed)
T2 sequence (looked up): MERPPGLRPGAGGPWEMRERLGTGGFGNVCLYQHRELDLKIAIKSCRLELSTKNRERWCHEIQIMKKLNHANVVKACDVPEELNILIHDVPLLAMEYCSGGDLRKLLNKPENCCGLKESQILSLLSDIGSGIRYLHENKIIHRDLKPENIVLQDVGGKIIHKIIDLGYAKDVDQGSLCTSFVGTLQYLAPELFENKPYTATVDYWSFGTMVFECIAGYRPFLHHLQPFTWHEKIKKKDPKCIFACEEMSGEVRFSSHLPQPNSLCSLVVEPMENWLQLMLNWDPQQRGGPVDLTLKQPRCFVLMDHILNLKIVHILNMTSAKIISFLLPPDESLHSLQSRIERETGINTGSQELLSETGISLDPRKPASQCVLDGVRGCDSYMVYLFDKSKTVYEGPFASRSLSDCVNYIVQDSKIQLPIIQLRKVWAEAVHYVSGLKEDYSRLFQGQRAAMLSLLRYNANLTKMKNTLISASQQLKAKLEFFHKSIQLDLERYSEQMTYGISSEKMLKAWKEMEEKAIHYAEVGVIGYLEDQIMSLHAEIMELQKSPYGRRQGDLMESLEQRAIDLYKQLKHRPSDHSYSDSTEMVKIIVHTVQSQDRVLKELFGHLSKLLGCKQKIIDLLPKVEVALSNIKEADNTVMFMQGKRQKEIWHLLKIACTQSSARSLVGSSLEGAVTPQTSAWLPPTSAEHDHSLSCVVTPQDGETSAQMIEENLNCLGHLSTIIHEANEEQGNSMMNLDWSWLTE

MAPKAP-K2(h) = MAPKAP-K2(h) (human, UniProt P49137 46-400)
AMPKa2(h) = AMPKa2(h) (human, UniProt P54646 1-552, limits assumed)
PDGFRα(D842V)(h) = PDGFRα(D842V)(h) (human, UniProt P16234 550-1089, limits assumed)
PrKX(h) = target: T3, PrKX(h) (human, UniProt P51817 1-358)
T3 sequence (looked up): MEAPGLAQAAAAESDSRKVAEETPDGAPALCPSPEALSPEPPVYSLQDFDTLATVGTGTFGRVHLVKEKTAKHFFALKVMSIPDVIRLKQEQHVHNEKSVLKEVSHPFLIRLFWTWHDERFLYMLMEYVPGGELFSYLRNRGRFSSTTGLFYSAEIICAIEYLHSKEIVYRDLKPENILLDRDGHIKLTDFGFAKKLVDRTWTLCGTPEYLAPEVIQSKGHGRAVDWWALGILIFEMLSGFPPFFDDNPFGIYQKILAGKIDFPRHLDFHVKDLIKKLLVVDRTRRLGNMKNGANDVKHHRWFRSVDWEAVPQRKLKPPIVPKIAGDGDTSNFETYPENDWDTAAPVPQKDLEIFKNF

TSSK1(h) = target: T4, TSSK1(h) (human, UniProt Q9BXA7 1-367)
T4 sequence (looked up): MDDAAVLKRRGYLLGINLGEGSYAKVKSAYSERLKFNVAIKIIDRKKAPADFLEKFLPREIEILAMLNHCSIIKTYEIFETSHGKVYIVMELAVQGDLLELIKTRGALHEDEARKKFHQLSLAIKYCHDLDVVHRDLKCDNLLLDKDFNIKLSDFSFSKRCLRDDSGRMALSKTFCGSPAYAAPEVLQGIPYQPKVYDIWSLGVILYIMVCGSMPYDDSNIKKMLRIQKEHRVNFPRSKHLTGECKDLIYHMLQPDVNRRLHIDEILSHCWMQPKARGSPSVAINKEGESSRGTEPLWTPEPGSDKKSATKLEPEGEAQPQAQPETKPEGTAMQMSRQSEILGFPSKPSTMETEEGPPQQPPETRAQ

WNK2(h) = WNK2(h) (human, UniProt Q9Y3S1 166-489, limits assumed)
Yes(h) = Yes(h) (human, UniProt P07947 1-543, limits assumed)
CDK6/cyclinD3(h) = CDK6/cyclinD3(h) (human, UniProt Q00534 1-326; P30281 1-292)
CHK2(h) = CHK2(h) (human, UniProt O96017 5-543, limits assumed)
Further: test concentration or dose not given here.

Yes(h), sequence (P07947 whole entry): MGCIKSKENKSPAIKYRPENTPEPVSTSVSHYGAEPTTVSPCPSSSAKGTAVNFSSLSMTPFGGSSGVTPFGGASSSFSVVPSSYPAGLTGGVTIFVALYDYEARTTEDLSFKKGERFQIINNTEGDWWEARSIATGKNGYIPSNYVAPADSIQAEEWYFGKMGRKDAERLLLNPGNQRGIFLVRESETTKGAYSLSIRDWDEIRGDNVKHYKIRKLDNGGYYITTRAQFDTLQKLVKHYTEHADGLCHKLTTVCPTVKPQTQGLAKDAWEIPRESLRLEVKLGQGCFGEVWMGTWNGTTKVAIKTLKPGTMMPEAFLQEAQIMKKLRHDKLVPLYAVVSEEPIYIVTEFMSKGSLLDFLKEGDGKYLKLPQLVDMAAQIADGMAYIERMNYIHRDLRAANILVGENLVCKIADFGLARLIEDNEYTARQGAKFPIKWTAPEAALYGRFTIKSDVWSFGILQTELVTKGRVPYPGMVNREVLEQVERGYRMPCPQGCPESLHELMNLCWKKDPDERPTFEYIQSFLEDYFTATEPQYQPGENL
MAPKAP-K2(h), sequence (P49137 46-400 limits assumed): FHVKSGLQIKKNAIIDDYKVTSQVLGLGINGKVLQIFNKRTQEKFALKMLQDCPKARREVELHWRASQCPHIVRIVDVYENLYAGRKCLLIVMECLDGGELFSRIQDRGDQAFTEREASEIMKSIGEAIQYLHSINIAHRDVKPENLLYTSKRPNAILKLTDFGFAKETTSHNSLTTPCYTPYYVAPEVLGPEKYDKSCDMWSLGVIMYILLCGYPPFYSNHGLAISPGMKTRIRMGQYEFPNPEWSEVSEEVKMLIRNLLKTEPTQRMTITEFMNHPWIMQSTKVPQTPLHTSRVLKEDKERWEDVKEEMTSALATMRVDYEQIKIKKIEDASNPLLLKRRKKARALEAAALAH
AMPKa2(h), sequence (P54646 whole entry): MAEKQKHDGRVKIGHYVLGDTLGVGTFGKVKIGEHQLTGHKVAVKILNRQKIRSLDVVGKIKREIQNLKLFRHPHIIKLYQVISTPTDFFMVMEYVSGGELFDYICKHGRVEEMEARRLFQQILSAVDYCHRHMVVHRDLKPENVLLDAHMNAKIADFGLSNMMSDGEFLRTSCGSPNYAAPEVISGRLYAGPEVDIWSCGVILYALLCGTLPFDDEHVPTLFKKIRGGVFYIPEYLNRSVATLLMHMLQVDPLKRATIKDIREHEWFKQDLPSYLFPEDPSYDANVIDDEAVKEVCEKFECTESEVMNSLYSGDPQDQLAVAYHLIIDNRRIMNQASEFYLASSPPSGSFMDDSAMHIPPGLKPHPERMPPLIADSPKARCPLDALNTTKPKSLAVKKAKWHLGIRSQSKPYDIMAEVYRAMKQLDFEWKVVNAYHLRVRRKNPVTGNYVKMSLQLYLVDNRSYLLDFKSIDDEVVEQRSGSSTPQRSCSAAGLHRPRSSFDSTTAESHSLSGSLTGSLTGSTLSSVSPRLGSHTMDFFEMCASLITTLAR
WNK2(h), sequence (Q9Y3S1 166-489 limits assumed): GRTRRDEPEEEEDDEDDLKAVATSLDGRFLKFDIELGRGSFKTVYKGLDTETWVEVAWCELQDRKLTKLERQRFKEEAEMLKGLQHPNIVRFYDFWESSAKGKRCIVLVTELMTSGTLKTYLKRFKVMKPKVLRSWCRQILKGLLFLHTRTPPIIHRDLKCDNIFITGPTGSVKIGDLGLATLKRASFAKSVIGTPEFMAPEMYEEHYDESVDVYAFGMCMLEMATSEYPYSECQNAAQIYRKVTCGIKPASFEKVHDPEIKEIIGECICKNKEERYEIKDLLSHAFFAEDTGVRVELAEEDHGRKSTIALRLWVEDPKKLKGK
CDK6/cyclinD3(h), sequence (Q00534 whole entry, chain 1 of 2): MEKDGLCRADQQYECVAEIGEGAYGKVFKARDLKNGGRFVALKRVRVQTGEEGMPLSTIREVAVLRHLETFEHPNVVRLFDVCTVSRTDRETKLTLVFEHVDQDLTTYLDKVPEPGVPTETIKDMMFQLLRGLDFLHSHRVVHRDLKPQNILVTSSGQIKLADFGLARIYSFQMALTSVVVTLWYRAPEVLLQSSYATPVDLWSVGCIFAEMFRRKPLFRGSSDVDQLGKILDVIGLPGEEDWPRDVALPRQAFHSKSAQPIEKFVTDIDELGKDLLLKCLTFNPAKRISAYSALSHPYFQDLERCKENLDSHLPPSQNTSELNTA
CDK6/cyclinD3(h), sequence (P30281 whole entry, chain 2 of 2): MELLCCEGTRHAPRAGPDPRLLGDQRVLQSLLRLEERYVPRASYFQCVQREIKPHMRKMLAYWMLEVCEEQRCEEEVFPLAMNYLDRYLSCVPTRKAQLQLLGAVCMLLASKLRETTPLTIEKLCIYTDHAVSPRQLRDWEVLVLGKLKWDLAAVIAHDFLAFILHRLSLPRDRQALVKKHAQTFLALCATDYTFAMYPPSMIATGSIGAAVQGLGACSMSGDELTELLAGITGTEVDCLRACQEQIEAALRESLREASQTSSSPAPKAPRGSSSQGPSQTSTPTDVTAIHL
PDGFRα(D842V)(h), sequence (P16234 550-1089 D842V limits assumed): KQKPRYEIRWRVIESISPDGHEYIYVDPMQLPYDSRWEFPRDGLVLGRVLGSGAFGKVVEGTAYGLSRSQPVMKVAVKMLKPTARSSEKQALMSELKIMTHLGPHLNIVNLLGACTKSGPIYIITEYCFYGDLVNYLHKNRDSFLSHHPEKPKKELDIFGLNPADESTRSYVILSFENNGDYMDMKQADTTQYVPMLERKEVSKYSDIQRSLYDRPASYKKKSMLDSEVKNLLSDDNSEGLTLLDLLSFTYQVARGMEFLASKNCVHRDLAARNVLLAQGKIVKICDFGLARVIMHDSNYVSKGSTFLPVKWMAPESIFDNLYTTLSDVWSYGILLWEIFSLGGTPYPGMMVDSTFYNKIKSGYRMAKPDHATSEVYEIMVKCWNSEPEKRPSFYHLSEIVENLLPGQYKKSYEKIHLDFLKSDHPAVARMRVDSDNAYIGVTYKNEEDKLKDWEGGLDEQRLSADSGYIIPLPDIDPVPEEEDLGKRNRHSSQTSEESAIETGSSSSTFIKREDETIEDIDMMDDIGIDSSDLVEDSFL
HIPK3(h), sequence (Q9H422 161-562 limits assumed): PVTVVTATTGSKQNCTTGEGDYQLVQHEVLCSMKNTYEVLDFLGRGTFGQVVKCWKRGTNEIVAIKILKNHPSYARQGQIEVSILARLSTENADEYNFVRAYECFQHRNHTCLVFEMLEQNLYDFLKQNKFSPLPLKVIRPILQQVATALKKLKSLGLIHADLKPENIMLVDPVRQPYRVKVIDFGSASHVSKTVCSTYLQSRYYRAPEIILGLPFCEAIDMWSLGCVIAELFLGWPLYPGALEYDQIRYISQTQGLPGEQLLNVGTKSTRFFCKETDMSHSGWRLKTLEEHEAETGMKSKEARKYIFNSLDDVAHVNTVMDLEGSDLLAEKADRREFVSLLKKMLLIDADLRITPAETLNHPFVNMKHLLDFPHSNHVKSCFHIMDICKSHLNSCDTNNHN
CHK2(h), sequence (O96017 5-543 limits assumed): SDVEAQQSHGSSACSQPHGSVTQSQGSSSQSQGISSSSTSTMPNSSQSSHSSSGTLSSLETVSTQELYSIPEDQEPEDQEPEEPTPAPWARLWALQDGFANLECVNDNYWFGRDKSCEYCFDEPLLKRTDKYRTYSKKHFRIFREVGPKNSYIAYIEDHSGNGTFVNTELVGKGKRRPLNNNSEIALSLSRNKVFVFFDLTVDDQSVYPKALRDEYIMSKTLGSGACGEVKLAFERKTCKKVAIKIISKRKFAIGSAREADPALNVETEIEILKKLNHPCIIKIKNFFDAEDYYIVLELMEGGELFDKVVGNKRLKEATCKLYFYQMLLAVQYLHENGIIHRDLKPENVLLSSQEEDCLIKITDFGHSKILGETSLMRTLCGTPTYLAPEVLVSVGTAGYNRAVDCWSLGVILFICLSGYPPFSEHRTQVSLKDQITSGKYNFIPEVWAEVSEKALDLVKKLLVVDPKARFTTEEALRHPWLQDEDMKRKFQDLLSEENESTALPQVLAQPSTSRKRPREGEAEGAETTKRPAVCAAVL

B1: MMI-0300 (peptide)
peptide: FAKLAARLYRKALARQLGVAA
Which results are given for B1?
% activity (Fms(h)): 45%; % activity (HIPK3(h)): 93%; % activity (IKKα(h)): 93%; % activity (MAPKAP-K2(h)): 5%; % activity (AMPKa2(h)): 54%; % activity (PDGFRα(D842V)(h)): 114%; % activity (PrKX(h)): 61%; % activity (TSSK1(h)): 79%; % activity (WNK2(h)): 64%; % activity (Yes(h)): 67%; % activity (CDK6/cyclinD3(h)): 86%; % activity (CHK2(h)): 66%

B2: MMI-0400 (peptide)
peptide: KAFAKLAARLYRKALARQLGVAA
With B2 as the binder, how does the “% activity” value (Fms(h)) read?
Its value is 37%.

What about the “% activity” value (HIPK3(h)) of the same binder?
Its value is 105%.

What about the “% activity” value (IKKα(h)) of the same binder?
The value was 87%.

And the “% activity” value (MAPKAP-K2(h))?
Its value is 5%.

And the “% activity” value (AMPKa2(h))?
The value was 58%.

What about the “% activity” value (PDGFRα(D842V)(h)) of the same binder?
The value was 118%.

What about the “% activity” value (PrKX(h)) of the same binder?
The value was 76%.

What about the “% activity” value (TSSK1(h)) of the same binder?
The value was 79%.

And the “% activity” value (WNK2(h))?
Its value is 54%.

And the “% activity” value (Yes(h))?
The value was 14%.

What about the “% activity” value (CDK6/cyclinD3(h)) of the same binder?
The value was 85%.

What about the “% activity” value (CHK2(h)) of the same binder?
The value was 54%.
